Assays:
[1] = target: recombinant human Vim (human) (UniProt P08670); assay: quartz crystal microbalance with dissipation (QCM-D)
[2] = target: recombinant human Vim (human) (UniProt P08670); assay: AFM single-molecule force spectroscopy
[3] = target: recombinant human Vim (human) (UniProt P08670); assay: quartz crystal microbalance with dissipation (QCM-D); pH 7.4

recombinant human Vim (human), sequence (P08670 whole entry): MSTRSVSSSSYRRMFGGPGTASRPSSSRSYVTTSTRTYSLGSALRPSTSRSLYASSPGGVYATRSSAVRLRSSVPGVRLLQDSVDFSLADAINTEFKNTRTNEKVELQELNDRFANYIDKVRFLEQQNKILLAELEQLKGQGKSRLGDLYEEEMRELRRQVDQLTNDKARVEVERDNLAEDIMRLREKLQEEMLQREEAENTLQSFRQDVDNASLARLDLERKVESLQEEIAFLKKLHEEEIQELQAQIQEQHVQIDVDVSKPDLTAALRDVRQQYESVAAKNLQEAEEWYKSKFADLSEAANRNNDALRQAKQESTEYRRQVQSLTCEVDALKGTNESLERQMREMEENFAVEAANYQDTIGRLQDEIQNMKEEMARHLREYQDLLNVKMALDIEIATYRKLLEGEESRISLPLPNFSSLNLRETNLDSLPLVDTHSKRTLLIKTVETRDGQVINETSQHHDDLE

## wild-strain SARS-CoV-2 spike protein RBD (from UniProt P0DTC2) (domain or fragment)
[1]
  Ka (equilibrium adsorption constant), fraction I: 0.0011 cm
  Ka (equilibrium adsorption constant), fraction II: 0.46 cm
  Keq, fraction I: 4.7e+06 L mol^–1
  Keq, fraction II: 9.2e+08 L mol^–1
  desorption time, loosely bound fraction: 200 s
  desorption time, tightly bound fraction: > 10000 s
  kd' (desorption constant), fraction I: 0.063 s^–1
  kd' (desorption constant), fraction II: 0.00015 s^–1
[2]
  binding probability (specific adhesion events) (% of force curves): < 20
  rupture force at 5 um/s: 58 pN
[3]
  adsorbed amount: 1 mg m^–2
